In US20190248902A1 (published 2019):

T1: Human ASGR-2 (human, UniProt P07307 1-311)
T1 construct: Expressed on HEK 293 cells; cDNA GenBank NM_080913.3; also called huASGR-2; hASGR-2
T1 sequence: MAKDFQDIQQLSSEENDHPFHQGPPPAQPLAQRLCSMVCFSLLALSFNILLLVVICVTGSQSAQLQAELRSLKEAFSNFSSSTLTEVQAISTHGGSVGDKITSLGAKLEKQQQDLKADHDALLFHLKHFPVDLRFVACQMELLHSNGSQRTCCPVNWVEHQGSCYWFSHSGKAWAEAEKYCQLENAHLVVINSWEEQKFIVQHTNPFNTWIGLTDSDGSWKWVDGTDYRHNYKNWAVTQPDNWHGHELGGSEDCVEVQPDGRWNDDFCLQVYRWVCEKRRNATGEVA

T2: Pig ASGR-1 (pig)
T2 construct: Expressed on HEK 293 cells or as membrane prep on beads; cDNA GenBank NM_001244458
T2 chain: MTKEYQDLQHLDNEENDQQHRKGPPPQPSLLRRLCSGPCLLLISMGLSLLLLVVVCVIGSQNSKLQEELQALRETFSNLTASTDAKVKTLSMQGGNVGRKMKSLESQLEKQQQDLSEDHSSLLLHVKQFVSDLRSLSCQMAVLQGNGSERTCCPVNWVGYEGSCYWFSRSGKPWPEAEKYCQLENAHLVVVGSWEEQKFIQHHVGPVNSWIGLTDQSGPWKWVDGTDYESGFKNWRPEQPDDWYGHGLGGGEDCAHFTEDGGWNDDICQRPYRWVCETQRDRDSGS

T3: human ASGR-1 mutant construct H203 (human, UniProt P07306 1-291)
T3 construct: Arg/Glu scanning: non-arginine residues were changed to arginine; Transiently expressed on CHO-S cells
T3 sequence: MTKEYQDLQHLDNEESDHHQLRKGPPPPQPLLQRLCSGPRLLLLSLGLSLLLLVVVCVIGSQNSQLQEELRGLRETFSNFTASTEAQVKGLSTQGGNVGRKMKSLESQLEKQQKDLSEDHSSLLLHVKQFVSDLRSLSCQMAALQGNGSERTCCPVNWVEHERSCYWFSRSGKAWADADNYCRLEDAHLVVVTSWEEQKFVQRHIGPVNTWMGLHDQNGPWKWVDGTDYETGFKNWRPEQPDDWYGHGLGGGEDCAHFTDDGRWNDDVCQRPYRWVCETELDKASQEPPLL


How the values were obtained:
Human ASGR-2 = biological target: T1, Human ASGR-2; test: FACS on transfected HEK 293 cells; binding = signal at least 2x irrelevant IgG
Procedure: Human ASGR-1-specific, ligand competing antibody samples were tested for binding to ASGR-1 from other species (cynomologus monkey ASGR-1, mouse ASGR-1, rat ASGR-1, dog ASGR-1, and pig ASGR-1) as well as to human ASGR-2 in FACS binding assays at normalized antibody concentrations. For cell-based assays, HEK 293 cells expressing the appropriate antigen of interest were mixed with antibody sample or controls, incubated for 1 hour at 4° C., and then washed twice. Cells with bound antibody were then incubated with Alexa Fluor® 647 IgG Fc fragment-specific detection antibody and 7-AAD viability stain for 15 minutes at 4° C., washed once and resuspended in FACS buffer. Samples were analyzed using a BD Accuri™ Flow Cytometer and an Intellicyt HyperCyt Autosampler. As a negative control, supernatants and controls were also screened against HEK 293 cells transfected with empty parental vector. […] For membrane-prep binding assays, ASGR-1 species specific membrane preps were used to coat LumAvidin® microspheres (beads) and tested for binding to selected hybridoma supernatants or controls. Briefly, ASGR-1 species specific membrane preps were incubated with streptavidin-coated LumAvidin® beads for 45 minutes in the dark at room temperature and washed twice. Beads were resuspeneded in FACS buffer containing Stabilguard®. Antigen-bound beads were then incubated with normalized antibody sample for 1 hour in the dark at room temperature, washed twice, incubated with Alexa Fluor® 488 IgG Fc fragment-specific detection antibody for 15 minutes in the dark at room temperature, washed once and finally resuspended in FACS buffer. Samples were analyzed using an Intellicyt iQue™ Screener Platform. FACS buffer supplemented with 1 mM Calcium Chloride was used in all steps. As a negative control, supernatants and controls were also screened against a non-ASGR-1 antigen membrane prep coated on the LumAvidin® beads.

Pig ASGR-1 = biological target: T2, Pig ASGR-1; test: FACS on transfected HEK 293 cells or membrane preps on beads; Y = signal at least 2x irrelevant IgG
Outline: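 Antibodies at normalized concentrations bound 1 h at 4° C to HEK 293 cells expressing each antigen, then Alexa Fluor 647 anti-Fc plus 7-AAD 15 min at 4° C, flow cytometry; empty-vector cells as negative. Alternatively, species ASGR-1 membrane preps on streptavidin beads, antibody 1 h RT, Alexa Fluor 488 anti-Fc; FACS buffer with 1 mM CaCl2 throughout.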

[1] = biological target: T3, human ASGR-1 mutant construct H203; test: FACS ratio: H203 normalized value / wt normalized value
Outline: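 Transiently transfected CHO-S cells expressing wild-type or mutant hASGR-1 incubated with antibody at 5 ug/ml, 1 h at 4 °C; bound antibody detected by Alexa Fluor 647 anti-Fc plus 7-AAD, by flow cytometry. Binding normalized to expression using an unaffected antibody (65C12), then to wild type; hits defined as >3× IQR above third quartile.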

Row | Binder | binding result (Human ASGR-2) | binding result (Pig ASGR-1) | Normalization to wt ASGR1 Binding [1]
1 | 194C10 (antibody, V domains shown, Tested as hybridoma supernatant at normalized concentration) VH: QVQLQQWGAGLLKPSETLSLTCAVSGGSFRYYYWSWIRQPPGKGLEWFGEINHSGSTNYNPSLKSRVTISIDTSKNQFSLKLRSVTAADTAVYYCARDYGAFDIWGQGTMVTVSS VL: EIVLTQSPGTLSLSPGERATLSCRASPSVNSGYLAWYQQKPGQTPRLLIFGASSRATGIPDRFSASGSGADFTLTISRLEPEDFAVYFCQQYESSPWTFGQGTKVEIK | no binding | binds | 
2 | 176H4 (antibody, V domains shown, Tested as hybridoma supernatant at normalized concentration) VH: QVQLVESGGGVVQPGRSLRLSCAASGFTFSSYGMHWVRQAPGKGLEWVAIIWYDGSYKYYADSVKGRFTISRDNSKNTLYLQMSSLRAEDTAVYYCARDAHDFWSGYFAYWGQGALVTVSS VL: DIVMTQTPLSLSVTPGQPASISCKSSQSLLHGDGKTYLYWYLQKPGQPPQLLIYEVSNRFSGVPDRFSGSGSGTDFTLKISRVEAEDVGIYYCMQSIQIPWTFGQGTRVEIK | no binding | binds | 
3 | 190F8 (antibody, V domains shown, Tested as hybridoma supernatant at normalized concentration) VH: QVQLVESGGGVVQPGRSLRLSCAASGFTFSTYGMHWVRQAPGKGLEWVAVIWYDGSNKNYADSVKGRFTISRDNSKNTLYLQMNSLRAEDTAVYYCARDQGVGYDGLDVWGQGTTVTVSS VL: DIQMTQSPSSLSASVGDRVTITCRTSQGIGNYLAWFQQKPGKAPKSLLYKASSLQSGVPSKFSGSGSGTDFTLTISSLQPEDFATYYCQQYMTYPLTFGGGTKVEIK | no binding | binds | 
4 | 194C1 (antibody, V domains shown, Tested as hybridoma supernatant at normalized concentration) VH: QVQLVESGGGVVQPGRSLRLSCAASGFTFSSYGMHWVRQAPGKGLEWVAVIWYDGSNEHYADSVKGRFTISRDNSKNTLYLQMNSLRAEDTAVYYCARNRGVGYYGLDVWGQGTTVTVSS VL: DIQMTQSPSSLSASVGDRVTITCRASQGISNYLAWFQQKPGKAPKSLIYAASSLQSGVPSKFSGSGSGTDFTLTISSLQPEDFATYYCLHYLTYPLTFGGGTKVEIK | no binding | binds | 
5 | 197G3 (antibody, V domains shown, Tested as hybridoma supernatant at normalized concentration) VH: QVQLVESGGGVVQPGRSLRLSCVASGFTFSSHGMHWVRQAPGKGLEWVAVIWYDGSNKNYADSVKGRFTISRDNSKNTLYLQMNSLRAEDTAVYYCARDPSVGYDGMDVWGQGTTVTVSS VL: DIQMTQSPSSLSASVGDRVTITCRASQGIGNHLAWFQQKPGKAPKSLIYAASSLQSGVPSKFSGSRSGTDFSLTISSLQPEDFATYYCQQYSNYPVTFGPGTKVDIK | no binding | binds | 
6 | 191G10 (antibody, V domains shown, Tested as hybridoma supernatant at normalized concentration) VH: QVQLVESGGGVVQPGRSLRLSCAASGFTFSSYGMHWVRQAPGKGLEWVAVIWYDGSNKNYADSVKGRFTISRDNSKNTLYLQMNSLRAEDTAVYYCARDQGVGYDGLDVWGQGTTVTVSS VL: DIQMTQSPSSLSASVGDRVTITCRTSQGIGKYLAWFQQKPGKAPKSLLYKVSSLQSGVPSKFSGSGSGTDFTLTISSLQPEDFATYYCQQYMTYPLTFGGGTKVEIK | no binding | binds | 
7 | 191G1 (antibody, V domains shown, Tested as hybridoma supernatant at normalized concentration) VH: QVQLVESGGGVVQPGRSLRLSCAASGFTFSSYGMHWVRQAPGKGLEWVAVIWYDGSNEHYADSVKGRFTISRDNSKNTLYLQMNSLRAEDTAVYYCARDRGVGYYGLDVWGQGTTVTVSS VL: DIQMTQSPSSLSASVGDRVTITCRASQGISNYLAWFQQKPGKAPKSLIYAASSLQSGVPSKFSGSGSGTDFTLTISSLQPEDFATYYCQHYLTYPLTFGGGTKVEIK | no binding | binds | 
8 | 198G3 (antibody, V domains shown, Tested as hybridoma supernatant at normalized concentration) VH: QVQLVESGGGVVQPGRSLKLSCAASGFTFSTYGMHWVRQAPGKGLEWVAVIWYDGTNKNYADSVKGRFTISRDNSKNTLCLQMNSLRAEDTAVYYCARDQGVGYDGLDVWGQGTTVTVSS VL: DIQMAQSPSSLSASVGDRVTITCRTSQGIGKYLAWFQQKPGKAPKSLLYKASSLQGGVPSKFSGSGSGTDFTLTISSLQPEDFATYYCQQYMTYPLTFGGGTKVEIK | no binding | binds | 
9 | 193E7 (antibody, V domains shown, mAb) VH: QVQLQQWGAGLLKPSETLSLTCAVYGGSFSGYFWTWIRQPPGKGLEWIGEINHSGSTNYNPSLKSRVTISVDTSKNQFSLKLSSVTAADTAVYYCARDYGADYWGQGTLVAVSA VL: DIQMTQSPSSLSASVGDRVTITCRASQGIRNDLGWYQQKPGKAPKRLIYSASSLQRGVPSRFSGSGSGTEFTLTISSLQPEDFATYYCLQHKRYPLTFGGGTKVEIK |  |  | 1.18

Results, then the binder that gave them:

Row | binding result (Human ASGR-2) | binding result (Pig ASGR-1) | Normalization to wt ASGR1 Binding [1] | Binder
10 | no binding | binds |  | 202A3 (antibody, V domains shown, Tested as hybridoma supernatant at normalized concentration) VH: QVQLEQSGAEVKKPGASVKVSCKASGYTFTSYDINWVRQATGQGLEWLGWMNPKRGNTGYAQKFQGRVTMTRNTSISTAHMELSSLRSEDTAVYYCARGRYSREDYYYYYDMDVWGQGTTVTVSS VL: DIQMSQSPSSLSASVGDRVTITCRASQGIRNDLGWYQQKPGKAPKRLICAASRLQSGVPSRFSGSGSGTEFTLTISSLQPEDFAIYYCLQHHDYPFTFGPGTKVDIK
11 | no binding | binds |  | 218G4 (antibody, V domains shown, Tested as hybridoma supernatant at normalized concentration) VH: QVQLVESGGGVVQPGRSLRLSCAASGFTFSSYGLHWVRQAPGKGLEWVAVIWYDGSNKYYADSVKGRFTISRDNSKNTLYLQMNSLRVEDTAVYYCANWYYYYYGMDVWGQGTTVTVSS VL: QSVLTQPPSVSAAPGQKVTISCSGSSSNIGNNYVSWYQQLPGTAPKLLLYDSNKRPSGIPARFSGSKSGTSATLGITGLQTGDEADYYCGTWDSSLNTVVFGGGTKLTVL
12 | no binding |  |  | 54E9 (antibody, V domains shown, Tested as hybridoma supernatant at normalized concentration) VH: QVQLVQSGAEVKKPGASVKVSCKASGYTFNSYGISWVRLAPGQGLEWMGWISAYNGNTKNAQKLQGRVTMTTDTSTSTAYMELRSLRSDDTAVYYCARHDFWSGYYKGMDVWGQGTTVTVSS VL: not shown
13 | no binding |  |  | 193E7 (antibody, V domains shown, Tested as hybridoma supernatant at normalized concentration) VH: QVQLQQWGAGLLKPSETLSLTCAVYGGSFSGYFWTWIRQPPGKGLEWIGEINHSGSTNYNPSLKSRVTISVDTSKNQFSLKLSSVTAADTAVYYCARDYGADYWGQGTLVAVSA VL: DIQMTQSPSSLSASVGDRVTITCRASQGIRNDLGWYQQKPGKAPKRLIYSASSLQRGVPSRFSGSGSGTEFTLTISSLQPEDFATYYCLQHKRYPLTFGGGTKVEIK
14 | no binding | binds |  | 75G3 (antibody, V domains shown, Tested as hybridoma supernatant at normalized concentration) VH: QVQLQQWGAGLLKPSETLSLTCAVYGGSLSGSYWSWIRQPPGKGLEWIGEINLSGSTNYNPSLKSRVTISVDTSKSQFSLTLRSVTAADTAVYYCARDYGGLDYWGQGTLVTVSS VL: EIVLTQSPGTLSLSPGERATLSCRARQNVDSSYLAWYQQKPGQAPRLLIYGASSRATGIPDRFSGSGSGTDFTLTISRLEPEDFAVFYCQQYERSPWTFGQGTKVEIK
